Test results from patent US7090842.

Assays:
[1] = biological target: mouse anti-CEA monoclonal antibody 8019; assay: competition RIA, labeled Ab2 (3H1) bound to 8019-coated plates with 0.125 µg unlabeled 3H1
[2] = biological target: mouse anti-CEA monoclonal antibody 8019; assay: RIA, labeled Ab2 (3H1) on 8019-coated plates, no inhibitor
[3] = biological target: mouse anti-CEA monoclonal antibody 8019; assay: plate RIA, inhibition of radiolabeled 8019 binding to semipurified CEA, 25 ng 3H1
[4] = biological target: mouse anti-CEA monoclonal antibody 8019; assay: competition RIA, labeled Ab2 (3H1) on 8019-coated plates, 250 ng unlabeled 3H1
[5] = biological target: mouse anti-CEA monoclonal antibody 8019; assay: competition: Ab2 blocks binding of 8019 to CEA on MCF-7 cells
[6] = biological target: mouse anti-CEA monoclonal antibody 8019; assay: competition RIA, labeled Ab2 (3H1) on 8019-coated plates with 0.125 µg unlabeled 3H1

B1: monoclonal anti-idiotype antibody 3H1 (antibody, V domains shown)
VH: EVQLQQSGPELVKPGASLKISCEASGYSLTAYTMNWVKQSHGKSLEWVGLINPFSGDTNYSQKFTGKATLTVDRSSSTAYMELLSLTSEDSAVYYCVITPVPYWYFDVWGAGTTVTVSS
VL: DIKMTQSPSSMYASLGERVTITCKASQDINGYLNWFQQEPGKSPKTLIYRANRLIDGVPSRFSGSGSGQVYSLTISSLEYEDMGTYYCLQFDEFPWMFGGGTKLEIK
- cpm Bound [1]: 439 cpm
- cpm Bound [2]: 12000 cpm
- percent inhibition [3]: 100%
- percent inhibition [4]: > 90%
- percent inhibition [5]: > 85%
- percent inhibition [6]: 97%
